Measured values from the supplement of paper PMC12042874.
± gives the uncertainty stated by the source.

Assay: amyloid nucleation score (Sup35N fusion, yeast selection) (log enrichment); library NNK2; higher = more nucleation; inactive = no reads after selection
Summary of the method: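 Growth for 7 days at 30°C on medium lacking adenine and uracil followed a 24-hour induction with 100 μM copper sulfate of psi-negative yeast expressing peptides of 20 random codons fused to Sup35N. Input and output plasmid inserts were sequenced with Illumina, and sequences with under 100 input reads were excluded. Nucleation score is the DiMSum log enrichment of output over input reads, centred on the mode score of non-aggregating sequences.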

Work on GVSIS yielded an amyloid nucleation score of -0.116 ± 0.76.

MELRFDCF showed an amyloid nucleation score of 0.089 ± 1.1.

FRGTCYMAIVDYLCNTFEGP gave an amyloid nucleation score of 1.37 ± 0.11.

In the case of IPFLLTHDEHAAGCPAMKSY, the amyloid nucleation score is reported as 0.223 ± 0.33.

Substance SCYNFVWYTCGLYMWLNCLL has an amyloid nucleation score of -0.793 ± 0.32.

Substance LLPWSPLKVVTSGYSTF has an amyloid nucleation score of -1.03 ± 0.78.

VTSLHSYSMMFPPMWMSNQS showed an amyloid nucleation score of 1.54 ± 0.32.

Substance LVLLVPGKLMCF has an amyloid nucleation score of 4.12 ± 0.081.

WILYLRMNYWKRTCYHAIGM gave an amyloid nucleation score of -0.214 ± 0.22.

For SSRTPNYA, the amyloid nucleation score was “inactive”.

In the case of QRVFDLKSGFGLNRDILVCL, the amyloid nucleation score is reported as “inactive”.

Work on WPTSSTYQHWFD yielded an amyloid nucleation score of 0.606 ± 0.41.

With VNLLFVVLCTMGSVSFKNSC the amyloid nucleation score was 7.768 ± 0.036.

With ALNYVSCWNALRKFRESVAH the amyloid nucleation score was “inactive”.

YLRFYRSIINILIKGSAFCV showed an amyloid nucleation score of -1.49 ± 1.1.

For CQFSTQMMVICSFTTLTSVL, the amyloid nucleation score was 1.98 ± 0.13.

Work on NVKSYKGQRFVAFGGGSVYA yielded an amyloid nucleation score of 0.567 ± 0.32.

For ETKWPDHYK, the amyloid nucleation score was 0.515 ± 0.64.

LLGGWESHSRRNVWYAAGLC showed an amyloid nucleation score of -0.711 ± 1.1.

For RFKLEYHEEG, the amyloid nucleation score was 2.81 ± 0.19.

Work on SHRMTSNNTNSNLLGRKTGS yielded an amyloid nucleation score of -0.139 ± 0.19.

Substance VQNMIDKVMKYWTYSICSTV has an amyloid nucleation score of 1.27 ± 0.36.

For AGIFQNSRRNPYRVYMMSVY, the amyloid nucleation score was 3.31 ± 0.06.

Substance EWSVWRSAKWQFQARNGMQG has an amyloid nucleation score of 2.05 ± 0.48.

With VNFPLVSGG the amyloid nucleation score was 0.114 ± 0.38.

For KGSDSYLFIERWCLKMNISL, the amyloid nucleation score was “inactive”.

With FKDWNKWY the amyloid nucleation score was “inactive”.

In the case of NYQIHVRVIRHLMTLGISAQ, the amyloid nucleation score is reported as 0.236 ± 0.35.

Work on VEVKNRYRVRKLLCGLLRIR yielded an amyloid nucleation score of 0.799 ± 0.74.

For ADHVDAYSFRDNDLSYQVYL, the amyloid nucleation score was 1.41 ± 0.46.

In the case of IVTTKWGNSHVSSVRIKARL, the amyloid nucleation score is reported as 5.42 ± 0.084.

In the case of ISFYVCVIML, the amyloid nucleation score is reported as 7.433 ± 0.065.

Substance HFIFVAYRWVSNNAELDLNF has an amyloid nucleation score of -0.724 ± 0.63.

With QCYAMSSLMMLYLFFLWGCG the amyloid nucleation score was -1.05 ± 0.55.

Work on GIGMRQYMNT yielded an amyloid nucleation score of 0.823 ± 0.32.

For SYTVAYISYFMLLLDGWGNR, the amyloid nucleation score was 0.815 ± 0.12.

For TPNQGNPSGYFFDNSFMKPF, the amyloid nucleation score was “inactive”.

FSKHCYIIMYDISRSKTSIF gave an amyloid nucleation score of -0.525 ± 1.1.

In the case of STLGPLGPSGYSRRARRLLA, the amyloid nucleation score is reported as 7.415 ± 0.06.

In the case of FDKRS, the amyloid nucleation score is reported as “inactive”.

GRWVST gave an amyloid nucleation score of 1.29 ± 0.43.

In the case of TKTTWSDPGG, the amyloid nucleation score is reported as 0.922 ± 0.43.

IFFLPVTCTWGTQWRL showed an amyloid nucleation score of 1.56 ± 0.15.

For DNGNWVCWLHVLGQGSHRKA, the amyloid nucleation score was “inactive”.

Substance KRSSGRVFHPRMSRW has an amyloid nucleation score of 0.641 ± 0.4.

Substance WYAAGLKNR has an amyloid nucleation score of -0.418 ± 1.

For CGELY, the amyloid nucleation score was 0.506 ± 0.66.

With IAVATSGP the amyloid nucleation score was 0.84 ± 0.46.

Work on IAAYLLNSQYDSCNVDEKRH yielded an amyloid nucleation score of -0.448 ± 0.39.

Work on SSQTGTCFARLQSAVFQVVW yielded an amyloid nucleation score of 1.69 ± 0.36.

Work on CMFWSHYTIRFSSWWLGGCE yielded an amyloid nucleation score of -0.149 ± 0.79.

FFLLPLVRYELLSNVDAVPG showed an amyloid nucleation score of 0.101 ± 0.76.

Work on LLISSLLTSDLLGPSSSVMD yielded an amyloid nucleation score of 1.51 ± 0.58.

With RSENSILHVLHRFVA the amyloid nucleation score was -0.559 ± 0.64.

HLFPAGRSKTHAVFWFQGKG gave an amyloid nucleation score of 0.412 ± 0.37.

For LFIRSIRPMDVVGVTLSAVE, the amyloid nucleation score was 0.764 ± 0.41.

With VHNQGFLFL the amyloid nucleation score was -0.07 ± 0.76.

For GMPQESHSYPLYEMLLGRVG, the amyloid nucleation score was -0.064 ± 0.3.

Work on AFSSLFWIWIPSNMRSQVLK yielded an amyloid nucleation score of 0.124 ± 0.42.

Work on FAFWGVSI yielded an amyloid nucleation score of 0.332 ± 0.24.

With VHLSLGGNIGLDGLQMVGVL the amyloid nucleation score was “inactive”.

In the case of SYNVFDVQIVLRYIVKLFTG, the amyloid nucleation score is reported as “inactive”.

NALSIQVGSCPRSLISSVGP showed an amyloid nucleation score of 0.228 ± 1.

DWQCRGLQYQWFGGVWDANV gave an amyloid nucleation score of -0.882 ± 0.64.

In the case of LCVIIMFLIIYYNEEFVWSQ, the amyloid nucleation score is reported as “inactive”.

Work on GELRIYRLGHCVCVSMSLPA yielded an amyloid nucleation score of 1.27 ± 0.36.

In the case of VLAVSLIYALTP, the amyloid nucleation score is reported as “inactive”.

Substance MYSYFSRSMTHTNNGLSSLA has an amyloid nucleation score of 4.38 ± 0.045.

FCCFRVYVDMENLSNSALTL showed an amyloid nucleation score of 7.557 ± 0.033.

Substance QYRFFVYKLRRQIIYV has an amyloid nucleation score of -0.191 ± 1.1.

Work on YWSVV yielded an amyloid nucleation score of 3.73 ± 0.11.

Substance LSKPDLRTGSDDMS has an amyloid nucleation score of -0.297 ± 0.79.

For HEEVLLHGLVCKLHRMKR, the amyloid nucleation score was 0.474 ± 0.26.

In the case of DMQGRVVRR, the amyloid nucleation score is reported as -0.855 ± 0.61.

Substance GLSRFA has an amyloid nucleation score of -0.582 ± 1.1.

Work on GISVLRQTVFDLSIFIPHTS yielded an amyloid nucleation score of 4.42 ± 0.055.

ILAQNCSFYLGVTLRIARRH gave an amyloid nucleation score of 1.21 ± 0.43.

Substance YKSDYSKLLCWKNYKFWLVC has an amyloid nucleation score of -1.07 ± 0.37.

Work on HSLLLRWNGYSM yielded an amyloid nucleation score of 4.92 ± 0.1.

Work on IGNAMHSLHSIHVRCRHSLE yielded an amyloid nucleation score of 0.713 ± 0.74.

In the case of GRVMMEC, the amyloid nucleation score is reported as 0.465 ± 0.33.

In the case of NVTQMRGSDISLLRMFESNY, the amyloid nucleation score is reported as 0.454 ± 0.45.

Substance TNDASYSIDLWW has an amyloid nucleation score of -0.304 ± 0.18.

With SGERRTGCPEAAS the amyloid nucleation score was 0.075 ± 0.34.

Work on RIPHHWMSVGLVIAPRLKSV yielded an amyloid nucleation score of -0.365 ± 0.63.
